Data: patent US20070231333A1, “ANTI-5T4 ANTIBODIES AND USES THEREOF” (Wyeth, priority 2006, published 2007)

Key:
human 5T4 antigen = target: T1, human 5T4 antigen (Homo sapiens, UniProt Q13641); experiment: BIACORE analysis of antibody binding to human 5T4 antigen immobilized on a CM5 chip; settings: murine antibodies, Table 3
T1 sequence (Q13641 32-420): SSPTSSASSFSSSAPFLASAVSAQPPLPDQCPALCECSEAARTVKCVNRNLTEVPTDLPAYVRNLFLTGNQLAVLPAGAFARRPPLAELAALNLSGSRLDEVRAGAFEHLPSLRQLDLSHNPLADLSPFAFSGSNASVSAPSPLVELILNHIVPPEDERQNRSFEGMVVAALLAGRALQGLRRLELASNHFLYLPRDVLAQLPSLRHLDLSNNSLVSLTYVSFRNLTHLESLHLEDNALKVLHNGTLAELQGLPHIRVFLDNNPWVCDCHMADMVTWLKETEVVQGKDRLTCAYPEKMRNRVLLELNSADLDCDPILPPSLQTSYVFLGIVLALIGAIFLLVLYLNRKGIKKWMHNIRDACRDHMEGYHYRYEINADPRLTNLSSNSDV
Experimental: To assess the binding specificity and affinity of the A1, A2, and A3 antibodies, BIACORE® analysis was performed using human 5T4 antigen immobilized on a CM5 chip. BIACORE® technology utilizes changes in the refractive index at the surface layer upon binding of the antibody to the 5T4 antigen immobilized on the layer. Binding is detected by surface plasmon resonance (SPR) of laser light refracting from the surface. Analysis of the signal kinetics on rate and off rate allows discrimination between non-specific and specific interactions. The H8 anti-5T4 antibody was used as a control. H8 is a hybridoma-generated monoclonal mouse IgG1 antibody described in PCT International Publication No. WO 98/55607 and in Forsberg et al. (1997) J. Biol. Chem. 272(19):[…].
To assess the binding specificity and affinity of the chimeric and humanized H8, A1, A2, and A3 antibodies, BIACORE® analysis was performed using human 5T4 antigen immobilized on a CM5 chip. See Example 2.

MDAMB435/5T4 cells = experiment: Modulation/internalization of antibodies by MDAMB435/5T4 cells (FACS); type: cell-based, human; settings: 37° C., 4 or 24 hours, 4C
Experimental: FIGS. 4A-4C are line graphs that show modulation of H8, A1, A2, and A3 antibodies by MDAMB435/5T4 cells. […] MCF, mean cellular fluorescence; supt, supernatant.
To assess internalization of antibodies upon binding to 5T4 antigen, the amount of H8 and A1 antibodies detected at the cell surface versus in the supernatant was determined as a function of time. Non-enzymatically dissociated MDAMB435/5T4 cells (human breast cancer cells) were exposed to anti-5T4 antibodies for 1 hour at 4° C. Cells were washed and incubated in media at 37° C. for 4 hours or 24 hours. The amount of antibody bound to cellular membranes versus unbound antibody (i.e., presence in the supernatant) was determined using FACS.

rat 5T4 ectodomain Fc = target: T2, rat 5T4 ectodomain Fc (Rattus norvegicus, UniProt Q5PQV5); experiment: Epitope mapping ELISA, 5T4 ectodomain Fc fusions; type: binding; design: key: +: binding; −: no binding; +/−: partial binding
T2 construct: rat 5T4 (amino acids 1-361); made in house; host or cells: COS-1 cells (transient)
T2 sequence (Q5PQV5 32-361): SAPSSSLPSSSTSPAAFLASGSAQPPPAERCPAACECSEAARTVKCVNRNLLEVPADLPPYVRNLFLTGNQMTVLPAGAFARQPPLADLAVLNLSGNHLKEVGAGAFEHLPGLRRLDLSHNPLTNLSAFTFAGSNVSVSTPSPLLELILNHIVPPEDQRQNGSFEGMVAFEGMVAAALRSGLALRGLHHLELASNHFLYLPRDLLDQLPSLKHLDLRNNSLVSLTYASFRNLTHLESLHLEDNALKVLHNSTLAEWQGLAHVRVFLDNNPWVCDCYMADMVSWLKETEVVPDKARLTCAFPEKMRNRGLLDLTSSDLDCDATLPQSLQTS
Experimental: (§1) To identify the epitopes to which each of the A1, A2, A3, and H8 antibodies bind, ELISA assays were performed using (1) 5T4 ectodomain Fc constructs with deleted or mutated sequences, and (2) 5T4 chimera constructs transiently expressed in COS-1 cells. The ectodomain includes the amino-terminal region, two leucine-rich repeats, and the intervening hydrophilic region. Fusion proteins containing a 5T4 ectodomain and a Fc constant regions from human IgG1 were prepared using mouse 5T4 (amino acids 1-361), rat 5T4 (amino acids 1-361), cynomologous monkey 5T4 (amino acids 1-355), chimpanzee 5T4 (amino acids 1-355), and black-tailed marmoset (amino acids 1-355). The 5T4 chimera constructs are depicted in FIG. 5. The binding results are summarized in Table 5, which indicates specific binding, partial binding, or lack of binding, by each of the H8, A1, A2, and A3 antibodies.

human 5T4 ectodomain Fc = target: T3, human 5T4 ectodomain Fc (Homo sapiens, UniProt Q13641); experiment: Epitope mapping ELISA, 5T4 ectodomain Fc fusions; type: binding; design: key: +: binding; −: no binding; +/−: partial binding
T3 construct: Human; 100; 1-355; made in house; host or cells: COS-1 cells (transient)
T3 sequence (Q13641 32-355): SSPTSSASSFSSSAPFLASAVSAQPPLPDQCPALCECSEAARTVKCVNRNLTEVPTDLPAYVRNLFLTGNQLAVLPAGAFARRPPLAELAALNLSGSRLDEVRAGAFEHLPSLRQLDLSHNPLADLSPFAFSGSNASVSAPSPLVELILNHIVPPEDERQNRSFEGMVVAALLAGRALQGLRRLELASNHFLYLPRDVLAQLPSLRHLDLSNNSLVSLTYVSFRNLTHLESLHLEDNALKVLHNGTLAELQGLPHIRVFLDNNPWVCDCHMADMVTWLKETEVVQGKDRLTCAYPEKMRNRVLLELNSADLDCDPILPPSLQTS
Experimental: as §1

[1] = target: T4, cynomologous monkey 5T4 ectodomain Fc (Macaca fascicularis, UniProt Q4R8Y9, G135A/G313E/S41F); experiment: Epitope mapping ELISA, 5T4 ectodomain Fc fusions; type: binding; design: key: +: binding; −: no binding; +/−: partial binding
T4 construct: cynomologous monkey 5T4 (amino acids 1-355); made in house; host or cells: COS-1 cells (transient)
T4 sequence (Q4R8Y9 35-355 S41F/G135A/G313E): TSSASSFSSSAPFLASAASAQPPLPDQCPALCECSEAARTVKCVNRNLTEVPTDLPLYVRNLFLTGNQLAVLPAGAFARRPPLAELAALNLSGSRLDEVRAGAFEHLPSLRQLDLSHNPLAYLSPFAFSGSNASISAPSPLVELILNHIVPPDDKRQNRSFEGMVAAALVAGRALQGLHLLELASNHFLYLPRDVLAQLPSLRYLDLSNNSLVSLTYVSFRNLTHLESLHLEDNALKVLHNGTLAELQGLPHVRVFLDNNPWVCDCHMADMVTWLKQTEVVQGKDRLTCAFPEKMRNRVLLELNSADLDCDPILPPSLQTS
Experimental: as §1

- KA (human 5T4 antigen): 6.5e+07 M⁻¹
- ka (human 5T4 antigen): 56000 M⁻¹ s⁻¹
- kd (human 5T4 antigen): 0.00087 s⁻¹
- binding to 5T4 antigen construct (rat 5T4 ectodomain Fc): −
- binding to 5T4 antigen construct (human 5T4 ectodomain Fc): +
- binding to 5T4 antigen construct [1]: +
B1: A2: murine anti-5T4 monoclonal antibody (IgG2b heavy chain); VH residues 19-135 of SEQ ID NO:6, VL residues 23-130 of SEQ ID NO:8 (antibody, listed as Mus musculus, V domains shown)
VH: MEWRIFLFILSGTAGVHSQVQLQQSRPELVKPGASVKMSCKASGYTFTDYVISWVKQRTGQGLEWIGEIYPGSNSIYYNEKFKGRATLTADKSSSTAYMQLSSLTSEDSAVYFCAMGGNYGFDYWGQGTTLTVSS
VL: MDFQVQIFSFLLISASVIMSRGQIVLTQSPAIMSASLGERVTLTCTASSSVNSNYLHWYQQKPGSSPKLWIYSTSNLASGVPARFSGSGSGTSYSLTISSMEAEDAATYYCHQYHRSPLTFGAGTKLELK
modifications: (1)..(18) leader sequence; (19)..(135) heavy chain variable region; (44)..(53) CDR1; (68)..(84) CDR2; (117)..(124) CDR3; (1)..(22) leader sequence; (23)..(130) light chain variable region; (46)..(56) CDR1; (73)..(79) CDR2; (112)..(120) CDR3
- levels of antibody at the cell surface (MDAMB435/5T4 cells; FIGS. 4A): decline over time
- levels of antibody in the supernatant (MDAMB435/5T4 cells; FIGS. 4B): remain constant
